Test: soluble fraction after stress (log2 fold change); higher = more stays soluble; pooled small domains, quantitative proteomics
Details: stress: pH 4
Method in brief: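 Aggregation propensity is read out as the fold change in how much of each domain remains soluble after acid stress. The custom small-domain libraries were pooled, held at pH 4 and analysed with high-throughput quantitative proteomics. On the log2 scale used, higher values mean more of the domain stayed soluble.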

| Sequence | soluble fraction (log2) |
| --- | --- |
| HMPEVAHTIDMEAVNKHWDELPEREQRILVMRFYGNLTQTEIGERLGISQMHVSRLLARALSHLKSRLLD | -0.046 |
| HMELLPAERRQQLVDWFKSNQAGTSQDLARMFGISVSTIRRDLDLLASEGLVKRTHGGAVSIR | 0.2 |
| HMFMSKTAMVAIISEADKYGLFNIPEGLSVEKTADEIFEGHIEVDFDKLKNELDFVYKNEALEKQFQEN | -1 |
| HMREVVLNRIGSVAVQRATTRTWEEWVVTLDAEGMRGKEHRDVVGHLLRAHELTSWWAQMVSVGYEQSRGQ | -0.155 |
| HMIKSIRELAEVITLWKNQGKTILIAEHRLSYLMDLADRVLYMKDGQIENDFSMADFRKIPPDEISRMGLR | -0.532 |
| HMKSIFIRADELAAELDVSKALAYKMINQWNEELKAKGYTTVGGRVSRQYYYEKIYGAENVFDF | -1.78 |
| HMKSAIKQNILLYLSNKGVTSYEFYKISGVTRGILQQSNGISEDNIAKFLAYAPDVNIEWLLTGKGDMLKH | -0.325 |
| HMAAAQILRAAVLRVPAEETMRFVTETPELRRYLGASLGPTAAIVRPGQEQNLAAALQSHGILVEFDE | 0.106 |
| HMVEDIVLTDAQIEFVKQQAKNGLSAFQISEMIWPEMSVKRFSKQHVAVLDFLREYEPAYVHDSE | -1.85 |
| HMEELPVLHLKHVVVEGESLWKLAEQYLNDGTRWQEIYMLNRENISNPDLIREGQELNIQFLQGE | -1.05 |
| HMLVVEPSAELKTIIDKTASFVARNGPEFEARIKNEQNNAKFSFLQPNDPFNPYYRAKIVELGGTV | -0.174 |
| HMEYTTEELDSLLKLYFQTHESINRNEFEQLTSYTRTTASRRLKTLVQAGKLQNIGLYRFPVYKPTEGNF | -0.037 |
| HMTDSDTQDIDVGELRVGHFVFLDLSWIRHPFPLSSFKIQSAEQIKTIRSLGLRRIRYSPGRSGP | -0.882 |
| HMGLTYEQILTDVQRFVTQNHADTLSNEGNPEEARKLLKDYILQYVQNRSYHVDGQTTEELVDSLYED | -1.13 |
| HMNPIEAQIEELKNKDQKTAYQALKHLLAISETRAEVSYYFDRFVALLQDPQSYVRTRGLLLIGA | 0.0533 |
| HMALALDDLFDRYEQLQDQSLGDKTEEGQELRAMIRAYIEQEGLSVRVTRSTTNRELLELIEQEMEG | -0.703 |
| HMFPELNAEETQVVQLLQKQTEGMQVNSLVVESNIPITRMSGILFELELKGIIRNYAGGVYKL | -0.951 |
| HMKVGEIIKAKREELKIPLVNFAKELDISQGYLSQIENGIKTNPNLDIILKIIHRLDIDLAMLL | -1.02 |
| HMTYTMVAYGSQGDAVRQLQSELNRHGYQLDEDGVFGKKTRAAVRDYQKKNSLRLDGIAGDETWGSLLA | -0.522 |

| Sequence | soluble fraction (log2) |
| --- | --- |
| HMAPRKNIRLLRAAQDKAAAEGDHETVDAIRGQIAALIETLPVQYREEYLLQEKGRENGLKLAIENAAK | -0.214 |
| HMEVSEGEIREKVESVFSSNPRQAYNYKQISKKLNINDKSERQIVWDVLRKLAGSGKIQEVEHGRFRARAE | -0.0385 |
| HMTKGVWHTVKKGENLYRISLYYEVPQQEIKKANKIETENIVVGQKLFIPNTTKKSPIFALTP | -0.0478 |
| HMEAAETAVVTGTIVNIRSGPTLDFEAFAQVKQGDRLPVLDKFYNWYYVKLPSGVNGWISGQLVRIEQ | -0.673 |
| HMISKRFQIDEDNSNKRIDIFLTQSLDSISRGIVQQLILENKVEVNGGPVKRNYLIKIGDVIDVKIDL | -0.608 |
| HMKRIFEKKVVTESLNGLRLDKAAATLFADFSRNELGQWIKDEALLVNGKAKKVKEKVSEGDVLALDVELI | 0.0389 |
| HMKNTIPVPHIIGLSEQEARETLERAGLQLNVIKTEPNTKYESGQVTDTNPNEGIKVPKGTIVNVVLADS | -0.0342 |
| HMEPSERYKALQSLLPDYAKRLKKKGVTRHQLFLEYRLTHPDGYARSRFGTYFQAYLALSHP | ≥ 0.43 |
| HMEKKSKLVLAVLQGSDSDNTIRNLNERGFMVTVLSSTGGFLKKKSTTVMIGVEEDRLEEALDVLQKYAG | -0.617 |
| HMTVGEKIQYYRKKIGLSQEELGQKMLLSRQTISLWEMDKTLPTVDNLLRLKEIFSVSIDELLSENEPK | -0.257 |
| HMVFLPDEIFRLKVIKAGEGPEQGVGYLDDGTMVVIEGARDRIGDELEVRVTSTLQTNAGKMIFTKFE | -2.12 |
| HMSSSLDQLTVREREILAQVSRGLSNKAIARELGISHDTVKLHVRHILSKLGFSSRVEAAVFAIEHRIG | -0.481 |
| HMEDEEILNEIRHTEQYVYYFGNYIMEHHVSRGLSKEKVIASLARELQIEIADIREDFDGMIEQIKTNILN | -0.416 |
| HMTGQEGLIGAHGVALTRLSNEEGEVKVQGEIWQARSDQEVAKGASIEVVHVDGLVLTVRPQH | 0.175 |
| HMGIVAPGTLKHLHAVGNSYYPDWETKRHELVTAVTKGRTSSSKELYEAEANRLITRIEELLMTAAQSV | -0.548 |
| HMIGVQEFAMTYALTRRETEITQLIIQGKSNAMIAGELFISETTVKKHVSNIFEKTGVSRREELMVRVQAE | -1.45 |
| HMKTFSTRLIALREAIGVNQSELARRVGVTPQAVQKWESGANGPRGKRLEKLASELRSTVGYLVSGEGDG | 0.0382 |
| HMNKELVVPDLTDMRVKDAEFEAHQVGMRTEIVDSVYVRRLKRGYVYKQNPVPGSKVKKGRRIALTINAV | 0.1 |

From the domain aggregation screens of Martell et al. (2025)
